By Km is commonly meant the concentration of substrate that gives half-maximal velocity. For orientation: kcat means the number of substrate molecules converted per active site and unit of time at saturation. The term stoichiometry N denotes a count of units in the complex or per binding partner.

One data set has as its system Oc1ccccc1O. Briefly: purified protein. The conditions noted are these: 50 mM Tris-HCl pH 7.5, 37 °C, 20 min, catechol 0-200 µM, substrate O2 from air.
Data set [1] addresses Catechol 1,2-dioxygenase from Paracoccus sp. MKU1 (Paracoccus sp. MKU1). Briefly: SEC; purified C12O on Sephacryl S-300 HR, 50 mM Tris-HCl pH 8.5, 1 ml/min, A280; calibrated with NativeMark standards (20-1,236 kDa). (Size exclusion chromatography separates by hydrodynamic size, large species first.)

With “Catechol 1,2-dioxygenase (C12O) (Paracoccus sp. MKU1)”, in the data set with Oc1ccccc1O, the Km turned out to be 12.89 µM and the kcat turned out to be 199.5 s⁻¹.

As for “Catechol 1,2-dioxygenase from Paracoccus sp. MKU1 (enzyme)”, the stoichiometry N in data set [1] stood at 3.

These data come from PMC8591083, “Catechol 1,2-Dioxygenase From Paracoccus sp. MKU1—A Greener and Cleaner Bio-Machinery for cis, cis-Muconic Acid Production by Recombinant E. coli” (Frontiers in Bioengineering and Biotechnology, 2021).
